Test results published in patent US8263133B2, “Multivalent clustering targeting strategy for drug carriers” (The Regents of the University of California, priority 2009, dated 2012).
Where no end group is shown, it is not given here.

Legend:
αvβ3 integrins = molecular target: T1, αvβ3 integrins (Homo sapiens, UniProt P05106+P06756); test: Anti-adhesion assay on vitronectin-coated wells; assay type: cell-based; settings: HeLa cells
T1 construct: host or cells: HeLa cells, harvested by scraping
Protocol: HeLa cells (ATCC, Manassas, Va.) were cultured in DMEM medium (Invitrogen, Carlsbad, Calif.) supplemented with 10% Bovine Growth Serum (BGS, Hyclone, Logan, Utah). The cells were cultured at 37° C., with 98% humidity and 5% CO2. Cells were regularly subcultured using trypsin. 96-well plates were coated with human vitronectin by incubating a vitronectin solution (50 μL of 3 μg/mL, Invitrogen, Carlsbad, Calif.) in the well for 12-hrs at 37° C. The wells were washed three times with PBS and blocked with BSA (50 μL of 2% BSA in PBS) for 30 minutes at 37° C. The wells were washed three times with PBS and 100 μL/well of serum-free DMEM was added before chilling on ice. HeLa cells were harvested by scrapping using cell scrapers (USA Scientific, Ocala, Fla.), pelleted, and resuspended in ice cold serum-free DMEM to 400,000 cells/mL. 200 μL of serum-free DMEM was added to 50 μL of Au-Cap-RGD solution and vortexed before 250 μL of cell solution was added to the cells and placed in ice for 15 minutes. 100 μL/well of cell solution was added and allowed to incubate at 37° C. for 50 minutes. The plate was submerged in PBS in a Ziploc bag and centrifuged upside down for 10 minutes at 250 g. The plate was washed gently with additional PBS and removed. Remaining liquid was removed from the wells. The cells were fixed using 4% paraformaldehyde solution for 15 minutes and washed 3 times with PBS. Crystal violet solution was added to each well and incubated for 1 hr. The wells were then washed with milliQ water until no crystal violet was visible in solution. Crystal violet was solubilized using 10% acetic acid plate for 15 min and the absorbance at 570 nm was taken using the PowerWave microplate reader (BioTek, Winooski, Vt.).

[1] = Salt stability of modified and unmodified nanoparticles by UV-Vis absorbance; assay type: physicochemical; settings: absorption scan, increasing NaCl
Protocol: FIG. 2. Salt stability of modified and unmodified nanoparticles measured using UV-Vis absorbance spectroscopy. Salt concentration was increased using 2 μL for unmodified nanoparticles and 15 μL of 4.11 M NaCl every 15 min. Wavelength scans of (A) 5 nm unmodified Au nanoparticles and (B) Au-Cap nanoparticles in solution with increasing NaCl concentration. Shaded area under the curves in A and B were used to calculate aggregation parameter. C. Aggregation parameter plotted with mean±SD for n=3 for increasing NaCl concentration for 5 nm unmodified Au and Au-Cap.
Peptide-modified (Au-Cap) and unmodified particles were tested to check their salt stability. Au and Au-Cap nanoparticles were added to semi-micro cuvettes and serial additions of NaCl solution were added every 15 min followed by a wavelength scan from 400-900 nm (Beckman DU 730, Fullerton, Calif.). Aggregation parameter (AP) used to quantify aggregation was calculated using the equation AP=(A−A0)/A0. A is the integral of absorbance from 600 to 700 nm, and A0 is the integral of absorbance from 600 to 700 nm of the initial solution without salt added (see FIG. 2 area under the curve).

HeLa cells = test: Cell toxicity (proliferation) assay; assay type: cell-based; settings: all concentrations tested up to 17.9×10^10 particles/well
Protocol: FIG. 4. Cell toxicity (proliferation) assay for Au-Cap nanoparticles and DNA/PEI-Au polyplexes. HeLa cells were plated in 96-well plates (7000 cells/well) for 12-hrs before exposing the cells to Au-Cap nanoparticles or DNA/PEI-Au-Cap-RGD-ASA polyplexes at varying concentrations of Au nanoparticles (1.7 μL/well) and testing for cell proliferation. The data was normalized to absorbance of untreated samples to calculate the percent viability for each sample (n=3).
To determine whether 5 nm Au-Cap or DNA/PEI polyplexes modified with 5 nm Au-RGD-ASA were toxic to cells, the proliferation rate of HeLa cells exposed to Au-Cap or DNA/PEI-Au-RGD-ASA was compared to that of untreated cells (FIG. 4). Au-Cap nanoparticles were not toxic to cells for all the concentrations tested up to 17.9×10^10 particles/well (equivalent to 80×10^10 particles/m DNA).

T1 sequence (P06756 31-889 limits assumed): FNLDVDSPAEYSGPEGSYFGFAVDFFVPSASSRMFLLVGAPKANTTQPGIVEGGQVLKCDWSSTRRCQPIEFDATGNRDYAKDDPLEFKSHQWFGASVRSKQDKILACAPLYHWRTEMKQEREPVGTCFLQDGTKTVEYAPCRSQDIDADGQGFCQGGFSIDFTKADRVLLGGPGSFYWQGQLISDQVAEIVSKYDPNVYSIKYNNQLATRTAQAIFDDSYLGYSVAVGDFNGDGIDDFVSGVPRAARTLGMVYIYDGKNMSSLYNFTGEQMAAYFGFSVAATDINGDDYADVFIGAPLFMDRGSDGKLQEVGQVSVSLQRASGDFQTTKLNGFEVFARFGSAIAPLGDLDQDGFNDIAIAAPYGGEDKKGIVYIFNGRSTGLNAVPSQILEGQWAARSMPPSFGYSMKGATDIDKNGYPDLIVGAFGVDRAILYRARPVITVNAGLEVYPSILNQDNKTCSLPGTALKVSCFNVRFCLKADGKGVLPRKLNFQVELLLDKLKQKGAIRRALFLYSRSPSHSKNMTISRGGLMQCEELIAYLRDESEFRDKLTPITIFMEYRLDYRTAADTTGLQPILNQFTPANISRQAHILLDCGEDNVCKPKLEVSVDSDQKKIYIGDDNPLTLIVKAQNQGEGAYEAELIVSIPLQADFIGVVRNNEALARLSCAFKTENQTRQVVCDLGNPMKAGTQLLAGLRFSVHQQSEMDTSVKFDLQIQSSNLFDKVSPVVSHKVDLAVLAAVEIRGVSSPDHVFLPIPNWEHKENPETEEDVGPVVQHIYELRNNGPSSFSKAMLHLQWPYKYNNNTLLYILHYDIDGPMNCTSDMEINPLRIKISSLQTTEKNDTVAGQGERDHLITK
T1 sequence (P06756 891-1048 partner limits assumed): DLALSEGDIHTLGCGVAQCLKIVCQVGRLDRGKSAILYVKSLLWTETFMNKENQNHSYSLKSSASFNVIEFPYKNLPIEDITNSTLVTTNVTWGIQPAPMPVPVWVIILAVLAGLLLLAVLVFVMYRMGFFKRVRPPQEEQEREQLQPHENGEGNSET
T1 sequence (P05106 27-788): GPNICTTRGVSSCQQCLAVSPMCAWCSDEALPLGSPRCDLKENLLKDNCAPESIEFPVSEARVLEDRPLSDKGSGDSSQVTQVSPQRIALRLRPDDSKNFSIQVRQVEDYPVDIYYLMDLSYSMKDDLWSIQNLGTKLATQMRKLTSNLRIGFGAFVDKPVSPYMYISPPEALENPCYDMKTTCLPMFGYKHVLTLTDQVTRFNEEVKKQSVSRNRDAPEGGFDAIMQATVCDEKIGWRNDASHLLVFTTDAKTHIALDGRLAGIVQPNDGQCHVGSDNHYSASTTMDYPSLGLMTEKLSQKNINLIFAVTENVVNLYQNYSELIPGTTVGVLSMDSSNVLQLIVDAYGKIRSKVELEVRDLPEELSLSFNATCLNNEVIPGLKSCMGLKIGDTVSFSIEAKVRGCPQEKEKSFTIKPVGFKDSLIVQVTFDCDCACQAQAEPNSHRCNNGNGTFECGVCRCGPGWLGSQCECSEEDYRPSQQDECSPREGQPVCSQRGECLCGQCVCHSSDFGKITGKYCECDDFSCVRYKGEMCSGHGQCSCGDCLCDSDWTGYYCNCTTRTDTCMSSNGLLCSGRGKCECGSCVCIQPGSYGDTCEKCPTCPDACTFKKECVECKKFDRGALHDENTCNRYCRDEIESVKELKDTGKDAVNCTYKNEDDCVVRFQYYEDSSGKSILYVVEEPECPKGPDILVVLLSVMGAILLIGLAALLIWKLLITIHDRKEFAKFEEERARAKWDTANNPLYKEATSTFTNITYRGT

Substance | Equivalent amount of RGD required compared to monovalent free RGD peptide (αvβ3 integrins; n=3) | IC50 (αvβ3 integrins; equivalent RGD peptide concentration, read-out: IC50 concentration at which 50% of cell adhesion is inhibited) | NaCl concentration up to which nanoparticles are stable [1] | Toxicity to cells (HeLa cells) | Effect on cell attachment (αvβ3 integrins)
Au-Cap-RGD: RGD modified gold nanoparticles formed with mixtures of Cap and Cap-RGD peptides (peptide 1 Ac-CCVVVTGRGDSPSSK-OH; peptide 2 CCVVVT-OH; cysteine pairing not given here; also: mixture of Cap and Cap-RGD peptides on gold nanoparticles) | required less | ~100 nM | – | – | –
Au-Cap: 5 nm gold nanoparticles stabilized with self-assembling peptide CCVVVT (Cap) (CCVVVT-OH; cysteine pairing not given here; also: attached to 5 nm gold nanoparticles) | – | – | up to 500 mM | not toxic | did not affect cell attachment
